Article PMC9424855, “Obligately aerobic human gut microbe expresses an oxygen resistant tungsten-containing oxidoreductase for detoxifying gut aldehydes” (Frontiers in Microbiology, 2022)

How the values were obtained:
[1] = system: CC(C)CC=O; experiment: purified protein; details: apparent Km, benzyl viologen 1 mM as electron acceptor, 50 mM HEPES pH 7.5, 35 °C, anaerobic
[2] = system: O=C/C=C/c1ccccc1; experiment: purified protein; details: apparent Km, benzyl viologen 1 mM as electron acceptor, 50 mM HEPES pH 7.5, 35 °C, anaerobic
[3] = system: O=Cc1ccccc1; experiment: purified protein; details: apparent Km, benzyl viologen 1 mM as electron acceptor, 50 mM HEPES pH 7.5, 35 °C, anaerobic
[4] = system: O=Cc1ccco1; experiment: purified protein; details: apparent Km, benzyl viologen 1 mM as electron acceptor, 50 mM HEPES pH 7.5, 35 °C, anaerobic
[5] = target: Brevibacillus massiliensis tungsten-containing oxidoreductase (BmWOR) (Brevibacillus massiliensis)
[6] = target: BmWOR (Brevibacillus massiliensis, UniProt Z9C1J5R5O5); experiment: benzyl viologen reduction followed at […] nm; details: apparent Km; benzyl viologen 1 mM as electron acceptor, 50 mM HEPES pH 7.5, 35 °C, anaerobic
BmWOR, sequence (Z9C1J5R5O5 1-602): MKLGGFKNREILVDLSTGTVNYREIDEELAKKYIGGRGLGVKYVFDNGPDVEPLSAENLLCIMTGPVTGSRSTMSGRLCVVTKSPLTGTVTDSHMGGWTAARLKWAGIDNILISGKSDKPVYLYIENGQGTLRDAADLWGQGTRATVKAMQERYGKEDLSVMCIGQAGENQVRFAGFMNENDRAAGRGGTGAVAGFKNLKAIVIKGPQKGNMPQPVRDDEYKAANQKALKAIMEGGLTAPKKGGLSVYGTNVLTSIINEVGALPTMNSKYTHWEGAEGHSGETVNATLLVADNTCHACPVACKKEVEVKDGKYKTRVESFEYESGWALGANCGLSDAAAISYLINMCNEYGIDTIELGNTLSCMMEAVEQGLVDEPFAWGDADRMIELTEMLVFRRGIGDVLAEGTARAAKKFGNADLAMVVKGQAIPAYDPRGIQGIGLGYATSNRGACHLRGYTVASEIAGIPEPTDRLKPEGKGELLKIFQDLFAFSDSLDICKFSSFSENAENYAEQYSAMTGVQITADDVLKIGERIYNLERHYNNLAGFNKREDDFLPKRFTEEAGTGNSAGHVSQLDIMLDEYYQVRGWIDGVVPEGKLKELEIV

## BmWOR (Brevibacillus massiliensis)
[1]
  Km: 3.6 ± 0.9 µM
[2]
  Km: 5.6 ± 1.2 µM
[3]
  Km: 4.2 ± 1.0 µM
[4]
  Km: 2.1 ± 2.0 µM

## Brevibacillus massiliensis ferredoxin (BmFd) (natural protein)
[5]
  apparent Km for Fd as electron acceptor of BmWOR in the benzaldehyde oxidation assay (enzyme activity, Fd reduction followed at 425 nm): < 5 µM

## Tolualdehyde
[6]
  Km: 6.1 ± 2.1 µM
